# Patent US20090104178A1
# What was measured:
# APRIL (TNFL13) = test: SPR
# LIGHT (TNFL14) = test: SPR
substance,measurement,setting,value
Purified recombinant EV CrmD protein (receptor),Kd,APRIL (TNFL13),110 µM
same,Kd,LIGHT (TNFL14),0.14 µM
